Laboratory results from US12186436B2, “Triblock copolymer stabilizers for the formation of nanoparticles encapsulating soluble biologics, therapeutics, and imaging agents” (The Trustees of Princeton University, priority 2018, dated 2025).

Assay: Release of biologic from nanoparticles in release buffer (fluorescence of soluble biologic after 100 kDa ultrafiltration)
Assay type: physicochemical
Conditions: nanoparticles made by Process 2
Protocol: Release can be studied by diluting the final concentrated nanoparticle solution after ultrafiltration into the desired release buffer. The solutions can then be incubated under the required conditions of temperature and agitation. A suitable method to separate nanoparticles from released biologic can be employed at periodic time points to evaluate the released fraction. In one embodiment, ultrafiltration with a 100 kDa molecular weight cut-off is used to separate released biologic from the nanoparticles containing biologic that is still encapsulated.
Residual acetone and unencapsulated biologic were removed by rinsing on a 100 kDa Amicon ultrafilter that had been pre-blocked to prevent non-specific adsorption. The nanoparticle solution was concentrated to around 15-20 mg/ml and rinsed with deionized water twice using a volume that was about 3-4 times the concentrated volume. The flow-through streams were analyzed by fluorescence to determine encapsulation efficiency. The nanoparticles were resuspended in the indicated release buffer and placed on a shaker table at 37° C. for release. […] Particle size was characterized by Dynamic Light Scattering (DLS) using a Zetasizer Nano ZS.
Temperature was controlled in the centrifugation process to either 5° C. or 20° C. […] The flow-through streams were analyzed by fluorescence to determine encapsulation efficiency. […]

lysozyme
time for lysozyme release to reach 90%: 20 to 30 h
